Assay results published in PMC3258126.

System: rP20 WT (Bamboo mosaic virus satellite RNA (satBaMV, clone pBSF4))
Test: EMSA

WT satBaMV RNA transcript
Kd: 31 nM
